This passage reports binding result and Kd results from article PMC9528458 (Science signaling, 2022).

Changes are numbered by the printed parent chain. In names and notes the source's numbering stands. Like-named read-outs stand apart in the source and are kept apart here. Where only a bound is given, the exact number is not on record here.

In assay [1] the target is T1, mouse Fzd4 (residues 41-537), monomeric, in lipid nanodiscs (mouse, UniProt Q61088 41-537).
T1 sequence (looked up): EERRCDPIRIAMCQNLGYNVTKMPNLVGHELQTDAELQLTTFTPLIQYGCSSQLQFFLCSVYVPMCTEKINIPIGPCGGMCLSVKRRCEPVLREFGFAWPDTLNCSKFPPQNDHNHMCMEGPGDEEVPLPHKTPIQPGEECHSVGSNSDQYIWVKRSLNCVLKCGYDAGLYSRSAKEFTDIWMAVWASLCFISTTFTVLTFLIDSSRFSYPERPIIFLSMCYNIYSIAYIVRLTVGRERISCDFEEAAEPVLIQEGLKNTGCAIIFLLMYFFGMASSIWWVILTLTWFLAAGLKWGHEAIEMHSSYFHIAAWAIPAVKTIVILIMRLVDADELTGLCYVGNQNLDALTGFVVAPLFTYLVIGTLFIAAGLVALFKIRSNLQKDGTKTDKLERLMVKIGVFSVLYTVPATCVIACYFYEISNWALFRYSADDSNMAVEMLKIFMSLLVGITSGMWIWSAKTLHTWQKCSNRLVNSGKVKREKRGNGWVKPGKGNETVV
The experiment in a line: BLI. (BLI is a label-free optical method that tracks binding on a fibre tip over time.)

Assay [2] has as its target T2, human FZD5 (residues 27-585), in lipid nanodiscs (human, UniProt Q13467 27-585). The assay can be described thus: BLI.
In assay [3] the target is human FZD7 (residues 33-574), in lipid nanodiscs (human, UniProt O75084 33-574). The assay can be described thus: BLI.
Assay [4] has as its target pre-formed xWnt8-FZD5 complex in nanodiscs (human | Xenopus laevis, UniProt Q13467 27-585; P28026 23-358). The experiment in a line: BLI.
Assay [5] has as its target T1, mouse Fzd4 (residues 41-537), …. The assay can be described thus: BLI. This is another data set of the same source.
For assay [6] the target is unchanged. The experiment in a line: BLI. This is another data set of the same source.
Assay [7] has the same target. The experiment in a line: BLI. The source holds these as a separate data set.
For assay [8] the target is unchanged. The assay can be described thus: BLI. This is another data set of the same source.
Assay [9] shares this target. The experiment in a line: BLI. This is another data set of the same source.
Assay [10] has the same target. The assay can be described thus: SEC. For orientation: In gel filtration, larger molecules generally elute earlier.
In assay [11] the target is T2, human FZD5 (residues 27-585), in lipid …. The experiment in a line: SEC.

T2 sequence (Q13467 27-585): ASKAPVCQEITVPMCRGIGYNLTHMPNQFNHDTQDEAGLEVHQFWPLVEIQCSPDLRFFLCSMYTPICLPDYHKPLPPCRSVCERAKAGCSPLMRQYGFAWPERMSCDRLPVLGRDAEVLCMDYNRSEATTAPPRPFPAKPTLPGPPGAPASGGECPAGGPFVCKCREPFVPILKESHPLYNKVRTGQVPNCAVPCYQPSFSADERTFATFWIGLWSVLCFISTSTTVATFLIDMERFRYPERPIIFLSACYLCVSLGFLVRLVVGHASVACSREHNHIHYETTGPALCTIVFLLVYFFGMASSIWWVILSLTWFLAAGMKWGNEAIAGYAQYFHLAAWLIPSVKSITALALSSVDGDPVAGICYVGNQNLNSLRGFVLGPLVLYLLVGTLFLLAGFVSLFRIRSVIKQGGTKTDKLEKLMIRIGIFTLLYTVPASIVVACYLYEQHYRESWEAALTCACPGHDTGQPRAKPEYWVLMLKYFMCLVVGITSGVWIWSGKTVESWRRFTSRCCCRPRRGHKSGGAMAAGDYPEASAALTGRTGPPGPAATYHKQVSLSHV
pre-formed xWnt8-FZD5 complex in nanodiscs, sequence (Q13467 27-585, one chain of several): as the sequence (Q13467 27-585) above

B1: human Norrin (ligand, UniProt Q00604 25-133, looked up)
chain: KTDSSFIMDSDPRRCMRHHYVDSISHPLYKCSSKMVLLARCEGHCSQASRSEPLVSFSTVLKQPFRSSCHCCRPQTSKLKALRLRCSGGMRLTATYRYILSCHCEECNS
Consider B1, for which, in assay [1], the binding result is given as “binds”.

B2: DEP domain of mouse Dvl2 (residues 416-510) (domain or fragment, UniProt Q60838 416-510, looked up)
chain: GLSVHMDMASVTKAMAAPESGLEVRDRMWLKITIPNAFLGSDVVDWLYHHVEGFPERREARKYASGLLKAGLIRHTVNKITFSEQCYYVFGDLSG
The Kd is a measure of binding affinity in units of concentration. Low values mean higher affinity, high ones lower affinity. Turning to B2, the binding result in [2], in [3] and in [4] was “binds” each time. For the same molecule, the Kd is approximately 2000 nM in [5], 1200 nM in assay [6], approximately 40 nM in assay [7] and more than 10000 nM in assay [8].

B3: DEP domain of mouse Dvl2 bearing a G436P mutation (domain or fragment, UniProt Q60838 416-510, looked up)
chain: B2 chain with G21P
B3: the binding result in assay [9] is “binds”.

B4: Xenopus laevis Wnt8 (ligand, UniProt P28026 23-358, looked up)
chain: AWSVNNFLMTGPKAYLTYSASVAVGAQNGIEECKYQFAWERWNCPESTLQLATHNGLRSATRETSFVHAISSAGVMYTLTRNCSMGDFDNCGCDDSRNGRIGGRGWVWGGCSDNAEFGERISKLFVDGLETGQDARALMNLHNNEAGRLAVKETMKRTCKCHGISGSCSIQTCWLQLAEFRDIGNHLKIKHDQALKLEMDKRKMRSGNSADNRGAIADAFSSVAGSELIFLEDSPDYCLKNISLGLQGTEGRECLQSGKNLSQWERRSCKRLCTDCGLRVEEKKTEIISSCNCKFHWCCTVKCEQCKQVVIKHFCARRERDSNMLNTKRKNRGHRR
As to B4, the binding result in assay [10] and in assay [11] was “binds” in each case.
